Assay results reported in publication PMC5120866 (Cancer research, 2016).

Target: Integrin β3 (human (endogenous in ovarian cancer …, UniProt P05106 27-788))
Assay: co-IP

Chain of Integrin β3 (human (P05106 27-788): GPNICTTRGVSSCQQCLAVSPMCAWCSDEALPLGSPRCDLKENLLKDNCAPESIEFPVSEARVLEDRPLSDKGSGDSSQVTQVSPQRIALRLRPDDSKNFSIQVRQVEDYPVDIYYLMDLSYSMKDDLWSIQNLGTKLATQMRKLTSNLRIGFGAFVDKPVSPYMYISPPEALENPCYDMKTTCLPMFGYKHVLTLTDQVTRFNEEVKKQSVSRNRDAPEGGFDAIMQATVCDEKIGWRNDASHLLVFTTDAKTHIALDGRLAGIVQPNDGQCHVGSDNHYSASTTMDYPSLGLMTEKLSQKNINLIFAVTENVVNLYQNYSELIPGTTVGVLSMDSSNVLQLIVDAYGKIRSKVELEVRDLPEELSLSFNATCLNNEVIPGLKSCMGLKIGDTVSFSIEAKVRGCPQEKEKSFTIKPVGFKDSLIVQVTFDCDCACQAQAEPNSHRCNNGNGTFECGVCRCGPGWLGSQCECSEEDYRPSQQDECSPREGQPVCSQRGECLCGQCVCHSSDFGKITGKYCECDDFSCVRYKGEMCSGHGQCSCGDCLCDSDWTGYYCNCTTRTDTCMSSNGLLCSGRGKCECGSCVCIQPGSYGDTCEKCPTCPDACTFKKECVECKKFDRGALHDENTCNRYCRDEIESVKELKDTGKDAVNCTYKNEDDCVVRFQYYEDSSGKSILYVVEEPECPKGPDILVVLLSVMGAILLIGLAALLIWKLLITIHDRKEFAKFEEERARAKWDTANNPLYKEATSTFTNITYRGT

fold co-immunoprecipitation against EGFL6^RGE: 4.6 fold
B1: EGFL6 (wild-type, FLAG-EGFL6) (ligand, human, UniProt Q8IUX8-1 22-553, looked up)
chain: NAASARHHGLLASARQPGVCHYGTKLACCYGWRRNSKGVCEATCEPGCKFGECVGPNKCRCFPGYTGKTCSQDVNECGMKPRPCQHRCVNTHGSYKCFCLSGHMLMPDATCVNSRTCAMINCQYSCEDTEEGPQCLCPSSGLRLAPNGRDCLDIDECASGKVICPYNRRCVNTFGSYYCKCHIGFELQYISGRYDCIDINECTMDSHTCSHHANCFNTQGSFKCKCKQGYKGNGLRCSAIPENSVKEVLRAPGTIKDRIKKLLAHKNSMKKKAKIKNVTPEPTRTPTPKVNLQPFNYEEIVSRGGNSHGGKKGNEEKMKEGLEDEKREEKALKNDIEERSLRGDVFFPKVNEAGEFGLILVQRKALTSKLEHKDLNISVDCSFNHGICDWKQDREDDFDWNPADRDNAIGFYMAVPALAGHKKDIGRLKLLLPDLQPQSNFCLLFDYRLAGDKVGKLRVFVKNSNNALAWEKTTSEDEKWKTGKIQLYQGTDATKSIIFEAERGKGKTGEIAVDGVLLVSGLCPDSLLSVDD
